Reference: publication PMC4174437

Target: Ec Hfq WT (Escherichia coli, UniProt P0A6X3 1-102)
Assay: fluorescence polarization

Chain of Ec Hfq WT (P0A6X3 whole entry): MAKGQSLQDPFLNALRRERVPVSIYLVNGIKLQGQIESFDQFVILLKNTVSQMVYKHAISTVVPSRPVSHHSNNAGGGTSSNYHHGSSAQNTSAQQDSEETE

UUUUUU (ssRNA) [U6 (5'-fluorescein)] was tested, and the Kd was 3.3 nM.
